Results reported in article PMC2173256 (The Journal of Cell Biology, 2002).

How the values were obtained:
Assay in all cases: co-IP
[1] = molecular target: FLAG XIAP (X-linked mammalian inhibitor of apoptosis protein), wild-type, full length (UniProt P98170 1-497)
[2] = molecular target: FLAG XIAP T143A E314S (UniProt P98170 1-497, T143A | E314S)
[3] = molecular target: FLAG XIAP V146A E314S (UniProt P98170 1-497, V146A | E314S)
[4] = molecular target: FLAG XIAP D148A E314S (UniProt P98170 1-497, D148A | E314S)
[5] = molecular target: FLAG XIAP D148A W310A E314S (UniProt P98170 1-497, D148A | W310A | E314S)
[6] = molecular target: FLAG XIAP D148A D214S H343A (UniProt P98170 1-497, D148A | D214S | H343A)
[7] = molecular target: FLAG XIAP D148A G306S (UniProt P98170 1-497, D148A | G306S)
[8] = molecular target: FLAG XIAP N259D (UniProt P98170 1-497, N259D)
[9] = molecular target: FLAG XIAP H343A (UniProt P98170 1-497, H343A)
[10] = molecular target: FLAG XIAP D214S (UniProt P98170 1-497, D214S)
[11] = molecular target: FLAG XIAP D214S N259D (UniProt P98170 1-497, D214S | N259D)
[12] = molecular target: FLAG XIAP E314S (UniProt P98170 1-497, E314S)
[13] = molecular target: FLAG XIAP N259D E314S (UniProt P98170 1-497, N259D | E314S)
[14] = molecular target: FLAG XIAP W310A E314S (UniProt P98170 1-497, W310A | E314S)
[15] = molecular target: FLAG XIAP D214S H343A (UniProt P98170 1-497, D214S | H343A)
Sequence of FLAG XIAP D214S H343A (P98170 whole entry D214S/H343A): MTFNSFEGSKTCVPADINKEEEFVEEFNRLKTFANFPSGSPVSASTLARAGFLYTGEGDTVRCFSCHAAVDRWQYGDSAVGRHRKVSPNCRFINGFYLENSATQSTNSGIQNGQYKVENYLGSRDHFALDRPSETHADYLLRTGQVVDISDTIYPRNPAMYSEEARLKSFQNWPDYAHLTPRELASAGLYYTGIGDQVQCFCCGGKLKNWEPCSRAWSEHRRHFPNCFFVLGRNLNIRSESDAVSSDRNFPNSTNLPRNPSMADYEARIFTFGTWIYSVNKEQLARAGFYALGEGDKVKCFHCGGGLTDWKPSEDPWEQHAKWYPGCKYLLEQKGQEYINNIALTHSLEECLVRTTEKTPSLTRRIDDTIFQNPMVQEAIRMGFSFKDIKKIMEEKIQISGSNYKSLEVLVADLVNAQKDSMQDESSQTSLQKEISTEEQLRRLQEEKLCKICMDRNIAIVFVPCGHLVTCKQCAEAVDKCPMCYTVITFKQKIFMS

Sequence of FLAG XIAP E314S (P98170 whole entry E314S): as the sequence (P98170 whole entry D214S/H343A) above, with S214D, E314S, A343H counted along it
Sequence of FLAG XIAP D214S (P98170 whole entry D214S): as the sequence (P98170 whole entry D214S/H343A) above, with A343H counted along it
Sequence of FLAG XIAP D148A E314S (P98170 whole entry D148A/E314S): as the sequence (P98170 whole entry D214S/H343A) above, with D148A, S214D, E314S, A343H counted along it
Sequence of FLAG XIAP D148A G306S (P98170 whole entry D148A/G306S): as the sequence (P98170 whole entry D214S/H343A) above, with D148A, S214D, G306S, A343H counted along it
Sequence of FLAG XIAP T143A E314S (P98170 whole entry T143A/E314S): as the sequence (P98170 whole entry D214S/H343A) above, with T143A, S214D, E314S, A343H counted along it
Sequence of FLAG XIAP D148A W310A E314S (P98170 whole entry D148A/W310A/E314S): as the sequence (P98170 whole entry D214S/H343A) above, with D148A, S214D, W310A, E314S, A343H counted along it
Sequence of FLAG XIAP V146A E314S (P98170 whole entry V146A/E314S): as the sequence (P98170 whole entry D214S/H343A) above, with V146A, S214D, E314S, A343H counted along it
Sequence of FLAG XIAP W310A E314S (P98170 whole entry W310A/E314S): as the sequence (P98170 whole entry D214S/H343A) above, with S214D, W310A, E314S, A343H counted along it
Sequence of FLAG XIAP N259D E314S (P98170 whole entry N259D/E314S): as the sequence (P98170 whole entry D214S/H343A) above, with S214D, N259D, E314S, A343H counted along it
Sequence of FLAG XIAP D214S N259D (P98170 whole entry D214S/N259D): as the sequence (P98170 whole entry D214S/H343A) above, with N259D, A343H counted along it
Sequence of FLAG XIAP N259D (P98170 whole entry N259D): as the sequence (P98170 whole entry D214S/H343A) above, with S214D, N259D, A343H counted along it
Sequence of FLAG XIAP (X-linked mammalian inhibitor of apoptosis protein), wild-type, full length (P98170 whole entry): as the sequence (P98170 whole entry D214S/H343A) above, with S214D, A343H counted along it
Sequence of FLAG XIAP H343A (P98170 whole entry H343A): as the sequence (P98170 whole entry D214S/H343A) above, with S214D counted along it
Sequence of FLAG XIAP D148A D214S H343A (P98170 whole entry D148A/D214S/H343A): as the sequence (P98170 whole entry D214S/H343A) above, with D148A counted along it

DIABLO binding relative to wild-type XIAP (arbitrary value, 10 = 100%) [1]: 10 arbitrary (10 = 100%) | DIABLO binding relative to wild-type XIAP (arbitrary value, 10 = 100%) [2]: 5 arbitrary (10 = 100%) | DIABLO binding relative to wild-type XIAP (arbitrary value, 10 = 100%) [3]: 5 arbitrary (10 = 100%) | DIABLO binding relative to wild-type XIAP (arbitrary value, 10 = 100%) [4]: 5 arbitrary (10 = 100%) | DIABLO binding relative to wild-type XIAP (arbitrary value, 10 = 100%) [5]: 4 arbitrary (10 = 100%) | DIABLO binding relative to wild-type XIAP (arbitrary value, 10 = 100%) [6]: 9 arbitrary (10 = 100%) | DIABLO binding relative to wild-type XIAP (arbitrary value, 10 = 100%) [7]: 8 arbitrary (10 = 100%) | DIABLO binding relative to wild-type XIAP (arbitrary value, 10 = 100%) [8]: 10 arbitrary (10 = 100%) | DIABLO binding relative to wild-type XIAP (arbitrary value, 10 = 100%) [9]: 10 arbitrary (10 = 100%) | DIABLO binding relative to wild-type XIAP (arbitrary value, 10 = 100%) [10]: 9 arbitrary (10 = 100%) | DIABLO binding relative to wild-type XIAP (arbitrary value, 10 = 100%) [11]: 9 arbitrary (10 = 100%) | DIABLO binding relative to wild-type XIAP (arbitrary value, 10 = 100%) [12]: 5 arbitrary (10 = 100%) | DIABLO binding relative to wild-type XIAP (arbitrary value, 10 = 100%) [13]: 5 arbitrary (10 = 100%) | DIABLO binding relative to wild-type XIAP (arbitrary value, 10 = 100%) [14]: 4 arbitrary (10 = 100%) | DIABLO binding relative to wild-type XIAP (arbitrary value, 10 = 100%) [15]: 8 arbitrary (10 = 100%)
B1: processed DIABLO (HA-tagged DIABLO) (natural protein)
chain: AVPIAQKSEPQSLSNEALMRRAVSLVTDSTSTFLSQTTYALIEAITEYTKAVYTLVSLYRQYTSLLGKMNSQEEDEVWQVIIGARVEMTSKQQEYLKLETTWMTAVGLSEMAAEAAYQTGADQASITARNHIQLVKSQVQEVRQLSQKAETKLAEAQTKELHQKAQEVSDEGADQEEEAYLRED
